One molecule from publication PMC3138754, “α-SNAP Prevents Docking of the Acrosome during Sperm Exocytosis because It Sequesters Monomeric Syntaxin” (PLoS ONE, 2011) can be followed below.

This assay has as its target T1, syntaxin1 (1–262), cytosolic domain (UniProt P32851 1-262).
T1 construct: syntaxin1 residues 1-262 (cytosolic domain); pET28a plasmid from D. Fasshauer; rat syntaxin 1A is surmised from the source of the plasmid; also called syntaxin 1–262; cytosolic domain of syntaxin1; source: E. coli BLR(DE3), pET28a plasmid, extracted in 6 M urea, purified on Ni-NTA with renaturing during the washing step
Kind of assay: co-IP; 0.9 µM syntaxin 1-262 with 1, 2.5 or 5 µM α-SNAP wild type or M105I, NSF and ATP omitted; anti-syntaxin immunoprecipitation, anti-α/β-SNAP blot, densitometry normalised to syntaxin. The following applies: both partners purified.

T1 sequence (P32851 1-262): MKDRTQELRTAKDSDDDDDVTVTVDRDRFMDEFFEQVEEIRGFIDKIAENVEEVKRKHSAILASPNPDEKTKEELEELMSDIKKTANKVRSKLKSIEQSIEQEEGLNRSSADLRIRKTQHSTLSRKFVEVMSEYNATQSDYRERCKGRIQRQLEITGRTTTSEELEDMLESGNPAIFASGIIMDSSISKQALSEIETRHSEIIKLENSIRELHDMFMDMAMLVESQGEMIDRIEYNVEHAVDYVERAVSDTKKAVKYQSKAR

B1: α-SNAP-M105I (natural protein, UniProt P81125 1-295, looked up)
chain: MDNSGKEAEAMALLAEAERKVKNSQSFFSGLFGGSSKIEEACEIYARAANMFKMAKNWSAAGSAFCQAAHVHLQLQSKHDAATCFVDAGNAFKKADPQEAINCLIRAIEIYTDMGRFTIAAKHHISIAEIYETELVDIEKAIAHYEQSADYYKGEESNSSANKCLLKVAGYAAQLEQYQKAIDIYEQVGTNAMDSPLLKYSAKDYFFKAALCHFCIDMLNAKLAVQKYEELFPAFSDSRECKRIKKLLEAHEEQNVDSYTEAVKEYDSISRLDQWLTTMLLRIKKTIQGDEEDLR
notes: α-SNAP with the point mutation M105I that occurs in hyh mice; pET28 plasmid from P. Hanson; called one of the three full length proteins; also called M105I mutant; the mutant of the hyh mouse; source: E. coli BLR(DE3), pET28 plasmid, purified (Ni-NTA, native conditions)
For the molecule B1, the “fold amount recovered with syntaxin against the wild type” value amounted to 2 fold.
